US20190040102A1 (CDRD VENTURES, published 2019)
One block for each binder: values may come before it. Starred links: 1 amine or outer side, 2 acyl side, 3 side chain; linkers in the order of their positions; H or OH if unused. Positions of bridges follow the written chain, without caps; N, C: chain ends. Non-standard residues stand in square brackets, D forms with d. *: point of attachment. dPhe(4-phenylureido) = D-4-(phenylureido)Phe, O=C(Nc1ccccc1)Nc1ccc(C[C@@H](N[*:1])C(=O)[*:2])cc1; thiocarbamate = -NH-(C=O)-S- bridge between side chains (disulfide isostere); dPhe(4-CONH2) = NC(=O)c1ccc(C[C@@H](N)C(=O)O)cc1; NMePhe(4-Cl) = CN[C@@H](Cc1ccc(Cl)cc1)C(=O)O; Phe(4-Cl) = N[C@@H](Cc1ccc(Cl)cc1)C(=O)O; NMeY = CN[C@@H](Cc1ccc(O)cc1)C(=O)O; dNMeY = CN[C@H](Cc1ccc(O)cc1)C(=O)O; NMeT = CN[C@H](C(=O)O)[C@@H](C)O; NMeC = CN[C@@H](CS)C(=O)O; dDap = NC[C@@H](N)C(=O)O; Dap = NC[C@H](N)C(=O)O; Hexanoyl = CCCCCC(=O)*

Biological target: somatostatin receptor type 2 (SSTR2) (UniProt P30874 1-369)
Sequence (P30874 whole entry): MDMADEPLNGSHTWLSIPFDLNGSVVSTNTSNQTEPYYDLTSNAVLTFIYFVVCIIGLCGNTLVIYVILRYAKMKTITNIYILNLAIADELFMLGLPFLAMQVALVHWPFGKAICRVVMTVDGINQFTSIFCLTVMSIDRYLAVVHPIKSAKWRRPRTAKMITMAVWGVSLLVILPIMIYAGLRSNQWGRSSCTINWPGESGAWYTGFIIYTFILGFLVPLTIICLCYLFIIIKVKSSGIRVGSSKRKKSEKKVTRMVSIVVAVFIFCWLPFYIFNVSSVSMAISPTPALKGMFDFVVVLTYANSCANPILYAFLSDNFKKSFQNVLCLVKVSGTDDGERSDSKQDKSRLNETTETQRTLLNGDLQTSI
Assay: cell-based or functional assay

IC50 (PathHunter β-Arrestin, antagonist mode): > 1 µM
B1: Compound 60: H-Cpa-cyclo[DDap-Tyr-DPhe(4-CONH2)-Lys-Thr-Cys]-DTyr-NH2 (peptide)
peptide: H-[Phe(4-Cl)][dDap]Y[dPhe(4-CONH2)]KTC[dY]-NH2
modifications: bridge 2-7 via thiocarbamate

IC50 (PathHunter β-Arrestin, antagonist mode): > 1 µM
B5: Compound 63: H-Cpa-cyclo[DCys-Tyr-DPhe(4-CONH2)-Lys(Me)-Thr-Dap]-DTyr-NH2 (peptide)
peptide: H-[Phe(4-Cl)][dC]Y[dPhe(4-CONH2)]K(Me)T[Dap][dY]-NH2
modifications: bridge 2-7 via thiocarbamate

IC50 (PathHunter β-Arrestin, antagonist mode): > 1 µM
B7: Compound 61: H-Cpa-cyclo[Dap-Tyr-DPhe(4-CONH2)-Lys-Thr-Cys]-DTyr-NH2 (peptide)
peptide: H-[Phe(4-Cl)][Dap]Y[dPhe(4-CONH2)]KTC[dY]-NH2
modifications: bridge 2-7 via thiocarbamate

IC50 (PathHunter β-Arrestin, antagonist mode): > 1 µM
B9: Compound 70: H-Cpa-cyclo[DDap-Tyr-Xaa4-Lys-Thr-Asp]-DTyr-NH2 (peptide)
peptide: H-[Phe(4-Cl)][dDap]Y[dPhe(4-phenylureido)]KTD[dY]-NH2
modifications: lactam 2-7; not fully specified; printed as H-Cpa-cyclo[DDap-Tyr-Xaa4-Lys-Thr-Asp]-DTyr-NH2

IC50 (PathHunter β-Arrestin, antagonist mode): 0.0287 µM
B10: Compound 79: H-Cpa-[DCys-Tyr-DPhe(4-carbamoyl)-Lys-Thr-Cys]-NMeDTyr-NH2 (peptide)
peptide: H-[Phe(4-Cl)][dC]Y[dPhe(4-CONH2)]KTC[dNMeY]-NH2
modifications: disulfide 2-7
SMILES: C[C@@H](O)[C@@H]1NC(=O)[C@H](CCCCN)NC(=O)[C@@H](Cc2ccc(C(N)=O)cc2)NC(=O)[C@H](Cc2ccc(O)cc2)NC(=O)[C@H](NC(=O)[C@@H](N)Cc2ccc(Cl)cc2)CSSC[C@@H](C(=O)N(C)[C@H](Cc2ccc(O)cc2)C(N)=O)NC1=O

IC50 (PathHunter β-Arrestin, antagonist mode): 0.4 µM
B11: Compound 76: H-Cpa-[DCys-Tyr-DPhe(4-carbamoyl)-Lys-Thr-NMeCys]-DTyr-NH2 (peptide)
peptide: H-[Phe(4-Cl)][dC]Y[dPhe(4-CONH2)]KT[NMeC][dY]-NH2
modifications: disulfide 2-7
SMILES: C[C@@H](O)[C@@H]1NC(=O)[C@H](CCCCN)NC(=O)[C@@H](Cc2ccc(C(N)=O)cc2)NC(=O)[C@H](Cc2ccc(O)cc2)NC(=O)[C@H](NC(=O)[C@@H](N)Cc2ccc(Cl)cc2)CSSC[C@@H](C(=O)N[C@H](Cc2ccc(O)cc2)C(N)=O)N(C)C1=O

Further lines, the binder ahead of its results:

B2: Compound 80: H-NMeCpa-[DCys-NMeTyr-DPhe(4-carbamoyl)-Lys-NMeThr-Cys]-NMeDTyr-NH2 (peptide)
peptide: H-[NMePhe(4-Cl)][dC][NMeY][dPhe(4-CONH2)]K[NMeT]C[dNMeY]-NH2
modifications: disulfide 2-7
SMILES: CN[C@@H](Cc1ccc(Cl)cc1)C(=O)N[C@@H]1CSSC[C@@H](C(=O)N(C)[C@H](Cc2ccc(O)cc2)C(N)=O)NC(=O)[C@H]([C@@H](C)O)N(C)C(=O)[C@H](CCCCN)NC(=O)[C@@H](Cc2ccc(C(N)=O)cc2)NC(=O)[C@H](Cc2ccc(O)cc2)N(C)C1=O
IC50 (PathHunter β-Arrestin, antagonist mode): > 1 µM

B3: Compound 25: H-Cpa-cyclo[D-Cys-Tyr-D-Phe(4-phenylureido)-Lys(Nε-Me)-Thr-Cys]-D-Tyr-NH2 (peptide)
peptide: H-[Phe(4-Cl)][dC]Y[dPhe(4-phenylureido)]K(Me)TC[dY]-NH2
modifications: disulfide 2-7
SMILES: CNCCCC[C@@H]1NC(=O)[C@@H](Cc2ccc(NC(=O)Nc3ccccc3)cc2)NC(=O)[C@H](Cc2ccc(O)cc2)NC(=O)[C@H](NC(=O)[C@@H](N)Cc2ccc(Cl)cc2)CSSC[C@@H](C(=O)N[C@H](Cc2ccc(O)cc2)C(N)=O)NC(=O)[C@H]([C@@H](C)O)NC1=O
IC50 (PathHunter β-Arrestin, antagonist mode): 0.00232 µM

B4: Compound 56: CH3(CH2)4(CO)-Cpa-cyclo[D-Cys-Tyr-D-Phe(4-carbamoyl)-Lys(Nε-Me)-Thr-Cys]-D-Tyr-NH2 (peptide)
peptide: Hexanoyl-[Phe(4-Cl)][dC]Y[dPhe(4-CONH2)]K(Me)TC[dY]-NH2
modifications: disulfide 2-7
SMILES: CCCCCC(=O)N[C@@H](Cc1ccc(Cl)cc1)C(=O)N[C@@H]1CSSC[C@@H](C(=O)N[C@H](Cc2ccc(O)cc2)C(N)=O)NC(=O)[C@H]([C@@H](C)O)NC(=O)[C@H](CCCCNC)NC(=O)[C@@H](Cc2ccc(C(N)=O)cc2)NC(=O)[C@H](Cc2ccc(O)cc2)NC1=O
IC50 (PathHunter β-Arrestin, antagonist mode): 0.0016 µM

B6: Compound 75: H-Cpa-[DCys-NMeTyr-DPhe(4-carbamoyl)-Lys-NMeThr-Cys]-DTyr-NH2 (peptide)
peptide: XXXXKXCX
HELM: PEPTIDE1{[N[C@@H](Cc1ccc(Cl)cc1)C(=O)[*:2]].[dC].[meY].[NC(=O)c1ccc(C[C@@H](N[*:1])C(=O)[*:2])cc1].K.[meT].C.[dY].[am]}$PEPTIDE1,PEPTIDE1,2:R3-7:R3$$$V2.0
SMILES: C[C@@H](O)[C@H]1C(=O)N[C@H](C(=O)N[C@H](Cc2ccc(O)cc2)C(N)=O)CSSC[C@@H](NC(=O)[C@@H](N)Cc2ccc(Cl)cc2)C(=O)N(C)[C@@H](Cc2ccc(O)cc2)C(=O)N[C@H](Cc2ccc(C(N)=O)cc2)C(=O)N[C@@H](CCCCN)C(=O)N1C
IC50 (PathHunter β-Arrestin, antagonist mode): > 1 µM

B8: Compound 74: H-Cpa-[DCys-NMeTyr-DPhe(4-carbamoyl)-Lys-Thr-Cys]-DTyr-NH2 (peptide)
peptide: XXXXKTCX
HELM: PEPTIDE1{[N[C@@H](Cc1ccc(Cl)cc1)C(=O)[*:2]].[dC].[meY].[NC(=O)c1ccc(C[C@@H](N[*:1])C(=O)[*:2])cc1].K.T.C.[dY].[am]}$PEPTIDE1,PEPTIDE1,2:R3-7:R3$$$V2.0
SMILES: C[C@@H](O)[C@@H]1NC(=O)[C@H](CCCCN)NC(=O)[C@@H](Cc2ccc(C(N)=O)cc2)NC(=O)[C@H](Cc2ccc(O)cc2)N(C)C(=O)[C@H](NC(=O)[C@@H](N)Cc2ccc(Cl)cc2)CSSC[C@@H](C(=O)N[C@H](Cc2ccc(O)cc2)C(N)=O)NC1=O
IC50 (PathHunter β-Arrestin, antagonist mode): 0.159 µM
